Data on one molecule can be found in patent US20250271431A1 (NEW ERA MABS, published 2025).

The target of the assay is SARS-CoV-2 Spike protein (D614G, furin-cleavage site destroyed, FKO) on SARS-CoV-2 virus-like particles (VLPs) (SARS-CoV-2, UniProt P0DTC2 14-1273).

B1: hcAb A7.2 (clone A7_2), camelid full length IgG2 heavy chain only antibody (antibody, V domains shown)
VH: DVQLQESGGGLVQPGKSLKLSCAAFGFAFSSTWMHWVRQAPGKGPEWVAFINPGGEKTMHADSVKGRFTISRDDAKNTLYLQMNNLKPEDTAVYYCAIERKDAFSWGQGTQVTVSS
For the molecule B1, the “EC50 (read off the curve)” value is ~400 µg/mL.
